Assay results published in IntAct's records for PubMed 19109891.

B1: Dystrophin (Homo sapiens), P11532-5 (parent)
chain: MREQLKGHETQTTCWDHPKMTELYQSLADLNNVRFSAYRTAMKLRRLQKALCLDLLSLSAACDALDQHNLKQNDQPMDILQIINCLTTIYDRLEQEHNNLVNVPLCVDMCLNWLLNVYDTGRTGRIRVLSFKTGIISLCKAHLEDKYRYLFKQVASSTGFCDQRRLGLLLHDSIQIPRQLGEVASFGGSNIEPSVRSCFQFANNKPEIEAALFLDWMRLEPQSMVWLPVLHRVAAAETAKHQAKCNICKECPIIGFRYRSLKHFNYDICQSCFFSGRVAKGHKMHYPMVEYCTPTTSGEDVRDFAKVLKNKFRTKRYFAKHPRMGYLPVQTVLEGDNMETPASSPQLSHDDTHSRIEHYASRLAEMENSNGSYLNDSISPNESIDDEHLLIQHYCQSLNQDSPLSQPRSPAQILISLESEERGELERILADLEEENRNLQAEYDRLKQQHEHKGLSPLPSPPEMMPTSPQSPRDAELIAEAKLLRQHKGRLEARMQILEDHNKQLESQLHRLRQLLEQPQAEAKVNGTTVSSPSTSLQRSDSSQPMLLRVVGSQTSDSMGEEDLLSPPQDTSTGLEEVMEQLNNSFPSSRGHNVGSLFHMADDLGRAMESLVSVMTDEEGAE

Variants of: B1
Details: with ank2_human ANK2, Q01484
Chain of ank2_human ANK2, Q01484 (Q01484 whole entry): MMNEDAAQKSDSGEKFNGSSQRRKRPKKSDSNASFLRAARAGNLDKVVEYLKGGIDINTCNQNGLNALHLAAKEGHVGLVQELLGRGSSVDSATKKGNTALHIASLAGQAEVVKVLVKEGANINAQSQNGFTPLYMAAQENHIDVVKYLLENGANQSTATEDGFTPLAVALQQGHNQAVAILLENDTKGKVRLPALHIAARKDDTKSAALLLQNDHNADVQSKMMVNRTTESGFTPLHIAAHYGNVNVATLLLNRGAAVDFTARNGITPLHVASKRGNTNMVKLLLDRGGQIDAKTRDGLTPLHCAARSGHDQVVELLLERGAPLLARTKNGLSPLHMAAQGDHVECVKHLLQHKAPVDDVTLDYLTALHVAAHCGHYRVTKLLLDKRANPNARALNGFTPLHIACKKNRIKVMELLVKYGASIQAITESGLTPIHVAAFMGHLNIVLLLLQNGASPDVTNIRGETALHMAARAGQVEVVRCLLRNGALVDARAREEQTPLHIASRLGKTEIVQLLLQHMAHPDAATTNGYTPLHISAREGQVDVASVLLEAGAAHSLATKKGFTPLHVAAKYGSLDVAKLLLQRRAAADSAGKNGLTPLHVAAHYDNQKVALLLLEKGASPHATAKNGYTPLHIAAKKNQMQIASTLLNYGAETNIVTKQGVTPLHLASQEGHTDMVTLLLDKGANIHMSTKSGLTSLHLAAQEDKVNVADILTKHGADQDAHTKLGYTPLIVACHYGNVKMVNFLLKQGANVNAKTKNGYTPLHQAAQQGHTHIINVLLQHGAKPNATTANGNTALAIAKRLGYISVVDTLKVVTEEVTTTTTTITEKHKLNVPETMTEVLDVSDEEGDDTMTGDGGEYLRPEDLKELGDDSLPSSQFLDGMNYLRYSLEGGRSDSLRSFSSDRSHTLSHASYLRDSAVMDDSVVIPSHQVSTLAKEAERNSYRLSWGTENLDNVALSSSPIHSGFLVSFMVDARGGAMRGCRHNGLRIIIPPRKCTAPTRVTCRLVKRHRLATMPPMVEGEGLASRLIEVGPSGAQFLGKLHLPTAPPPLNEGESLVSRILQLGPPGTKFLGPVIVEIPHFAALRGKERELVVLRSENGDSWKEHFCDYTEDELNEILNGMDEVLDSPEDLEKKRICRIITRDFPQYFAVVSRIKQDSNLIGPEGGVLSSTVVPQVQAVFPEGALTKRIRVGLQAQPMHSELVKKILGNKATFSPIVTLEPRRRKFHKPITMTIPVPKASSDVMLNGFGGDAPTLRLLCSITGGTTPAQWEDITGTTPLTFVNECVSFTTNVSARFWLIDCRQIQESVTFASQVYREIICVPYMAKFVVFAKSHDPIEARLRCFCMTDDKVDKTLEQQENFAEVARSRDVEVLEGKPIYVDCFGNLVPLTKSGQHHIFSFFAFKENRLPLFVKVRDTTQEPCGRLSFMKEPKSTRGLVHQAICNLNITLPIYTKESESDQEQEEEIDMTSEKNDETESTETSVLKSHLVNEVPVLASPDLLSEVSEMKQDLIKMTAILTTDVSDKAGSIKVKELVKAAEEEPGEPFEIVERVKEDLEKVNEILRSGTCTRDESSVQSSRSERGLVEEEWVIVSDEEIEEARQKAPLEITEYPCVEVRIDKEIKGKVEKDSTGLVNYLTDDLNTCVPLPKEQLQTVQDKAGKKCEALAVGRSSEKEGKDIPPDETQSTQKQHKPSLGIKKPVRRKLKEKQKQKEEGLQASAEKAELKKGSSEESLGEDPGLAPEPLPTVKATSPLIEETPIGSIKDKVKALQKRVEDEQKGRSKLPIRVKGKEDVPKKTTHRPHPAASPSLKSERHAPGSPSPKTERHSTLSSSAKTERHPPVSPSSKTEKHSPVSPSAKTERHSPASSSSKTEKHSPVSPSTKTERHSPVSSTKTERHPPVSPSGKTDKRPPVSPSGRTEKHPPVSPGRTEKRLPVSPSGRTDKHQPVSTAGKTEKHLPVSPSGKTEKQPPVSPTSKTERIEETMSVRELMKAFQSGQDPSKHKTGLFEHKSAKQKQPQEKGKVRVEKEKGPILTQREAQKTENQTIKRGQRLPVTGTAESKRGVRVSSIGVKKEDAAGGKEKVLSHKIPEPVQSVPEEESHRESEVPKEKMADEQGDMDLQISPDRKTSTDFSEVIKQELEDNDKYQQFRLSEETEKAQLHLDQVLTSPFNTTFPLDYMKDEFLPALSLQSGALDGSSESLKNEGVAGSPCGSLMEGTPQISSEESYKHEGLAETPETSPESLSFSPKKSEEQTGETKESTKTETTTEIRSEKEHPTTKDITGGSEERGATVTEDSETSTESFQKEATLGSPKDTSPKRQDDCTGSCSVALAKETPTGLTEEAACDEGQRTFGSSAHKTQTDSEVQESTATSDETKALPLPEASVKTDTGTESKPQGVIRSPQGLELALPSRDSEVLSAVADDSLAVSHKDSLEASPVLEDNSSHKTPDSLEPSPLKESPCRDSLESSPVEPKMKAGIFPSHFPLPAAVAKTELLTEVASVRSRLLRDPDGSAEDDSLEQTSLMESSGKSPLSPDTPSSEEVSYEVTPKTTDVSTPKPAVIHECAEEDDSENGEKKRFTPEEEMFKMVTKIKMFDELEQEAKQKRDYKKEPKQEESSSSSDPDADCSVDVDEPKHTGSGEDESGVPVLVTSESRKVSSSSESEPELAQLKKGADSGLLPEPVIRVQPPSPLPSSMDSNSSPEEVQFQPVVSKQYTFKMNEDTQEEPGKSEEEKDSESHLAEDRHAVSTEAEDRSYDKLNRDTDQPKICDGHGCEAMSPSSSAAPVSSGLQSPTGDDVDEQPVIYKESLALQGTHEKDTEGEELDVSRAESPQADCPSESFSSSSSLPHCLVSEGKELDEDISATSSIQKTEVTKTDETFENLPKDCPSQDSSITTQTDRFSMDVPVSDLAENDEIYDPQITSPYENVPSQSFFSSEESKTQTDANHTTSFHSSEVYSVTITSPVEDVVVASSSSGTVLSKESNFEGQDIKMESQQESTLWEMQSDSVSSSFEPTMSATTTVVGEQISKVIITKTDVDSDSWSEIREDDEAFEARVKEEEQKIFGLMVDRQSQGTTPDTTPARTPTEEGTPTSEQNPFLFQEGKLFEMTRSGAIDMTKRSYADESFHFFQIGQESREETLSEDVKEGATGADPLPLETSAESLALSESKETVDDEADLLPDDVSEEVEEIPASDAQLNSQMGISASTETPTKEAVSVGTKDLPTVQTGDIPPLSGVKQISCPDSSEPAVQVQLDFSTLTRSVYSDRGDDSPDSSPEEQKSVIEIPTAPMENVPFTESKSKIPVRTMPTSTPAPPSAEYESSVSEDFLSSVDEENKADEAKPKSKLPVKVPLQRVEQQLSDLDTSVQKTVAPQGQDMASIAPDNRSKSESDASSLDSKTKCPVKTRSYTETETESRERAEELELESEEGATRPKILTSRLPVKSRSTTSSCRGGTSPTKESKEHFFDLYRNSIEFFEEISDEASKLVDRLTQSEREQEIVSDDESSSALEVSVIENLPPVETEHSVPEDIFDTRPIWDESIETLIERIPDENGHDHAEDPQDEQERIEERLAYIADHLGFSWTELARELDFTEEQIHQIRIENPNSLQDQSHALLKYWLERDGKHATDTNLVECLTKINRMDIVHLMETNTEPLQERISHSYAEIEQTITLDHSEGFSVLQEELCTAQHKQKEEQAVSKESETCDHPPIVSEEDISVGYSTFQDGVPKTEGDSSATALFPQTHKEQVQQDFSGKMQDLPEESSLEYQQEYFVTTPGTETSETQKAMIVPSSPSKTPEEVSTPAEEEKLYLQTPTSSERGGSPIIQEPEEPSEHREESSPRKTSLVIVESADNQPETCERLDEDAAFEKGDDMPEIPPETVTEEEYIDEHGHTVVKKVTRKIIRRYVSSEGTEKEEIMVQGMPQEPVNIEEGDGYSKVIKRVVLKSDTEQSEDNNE

effect of a mutation on the interaction	Variant
decreasing interaction	D267N
